In article PMC7705432 (Cell Research, 2020):

B1: H014 Fab (Fab, V domains shown)
VH: VQLVQSGAEVKKPGATVKISCKVSGYSFSNYYIHWVKQAPGKSLEWIGYIDPFNGGTSDNLKFKGAATLTADTSTDTAYMELSSLRSEDTAVYYCARSEYDPYYVMDYWGQGTTVTVSS
VL: IVLTQSPFQSVSPKEKVTITCRASQSISSNLHWYQQKPDQSPKLLIKYASQSISGIPSRFSGSGSGTDFTLTINSLEAEDFGIYFCQQTNFWPYIFGQGTKLEIL
B2: P17 Fab (Fab, V domains shown)
VH: QQLVESGGGVVQPGRSLRLSCAASGFTFSSYAMHWVRQAPGKGLEWVAVISYDGSNKYYADSVKGRFTISRDNSKNTLYLQMNSLRAEDTAVYYCARHATLMNNKDIWGQGTLVTVSS
VL: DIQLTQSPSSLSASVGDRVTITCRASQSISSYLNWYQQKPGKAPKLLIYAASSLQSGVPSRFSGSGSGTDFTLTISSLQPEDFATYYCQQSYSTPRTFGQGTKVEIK
notes: also called P17 Fabs

Target: T1, SARS-CoV-2 S trimer (SARS-CoV-2, Wuhan-Hu-1 (GenBank …, stabilised))
T1 construct: also called Spike (S) protein
Experiment: cryo-EM structure
Settings: both partners purified

Binder	stoichiometry N [Fabs per S trimer]
B1	3
B2	3
